IntAct's records for PubMed 15385968

B1: DNA repair protein XRCC4 (Homo sapiens), Q13426 (parent)
chain: MERKISRIHLVSEPSITHFLQVSWEKTLESGFVITLTDGHSAWTGTVSESEISQEADDMAMEKGKYVGELRKALLSGAGPADVYTFNFSKESCYFFFEKNLKDVSFRLGSFNLEKVENPAEVIRELICYCLDTIAENQAKNEHLQKENERLLRDWNDVQGRFEKCVSAKEALETDLYKRFILVLNEKKTKIRSLHNKLLNAAQEREKDIKQEGETAICSEMTADRDPVYDESTDEESENQTDLSGLASAAVSKDDSIISSLDVTDIAPSRKRRQRMQRNLGTEPKMAPQENQLQEKENSRPDSSLPETSKKEHISAENMSLETLRNSSPEDLFDEI

Variants of: B1
Settings: with pnkp_human PNKP

effect of a mutation on the interaction	Variant
disrupting interaction	T233A
